# Literature values as cited in patent US20230301999A1, “METHODS OF TREATING GOUT” (Horizon Therapeutics USA, Inc., priority 2020, published 2023).
# Read-outs that look alike come from different tables or passages of the source.
# Assays:
# patients with gout = settings: patients treated with allopurinol
# [1] = rat; during 7 days after injection
# [2] = single IV infusions of 0.5 mg to 12 mg; 23 patients with symptomatic gout
# [3] = system: patients receiving pegloticase
# [4] = system: patients with refractory chronic gout; settings: bi-weekly or every 4 weeks for up to 30 months
# [5] = system: subjects with refractory gout; settings: doses of 4 to 12 mg; from 11.1±0.6 mg/dL
# [6] = system: patients with refractory chronic gout; settings: Phase 2 program
# vacuolated cells = settings: no associated clinical manifestations
# [7] = system: hyperuricemic patients with symptomatic gout
# [8] = 2 hemodialysis sessions; pre- and post-dialyzer samples
# subjects with gout = settings: Phase 2, 30-min administration in the majority
compound,measurement,setting,value
Oc1ncnc2[nH]ncc12 [allopurinol],patients developing allergic reactions,patients with gout,Approximately 2%
pegloticase,dose excreted in the urine,[1],Approximately 70%
same,maximum serum concentrations vs dose,[2],increased in proportion to the dose administered
same,patients with antibody titer exceeding 1:2430 maintaining response,"[3]; 7 of 65, another study",10.8%
same,patients with titers exceeding 1:2430 developing IRs,[3]; 31 of 52,60%
same,patients never having antibody titer above 1:2430 maintaining response,"[3]; 58/65, another study",89.2%
same,participants with high titers developing IR,[3]; second study,60%
same,long-term safety,[4],No new safety signals were observed
same,"pUAc after fall, mean±SD",[5],1.0±0.5 mg/dL
same,stability diluted in infusion bags,2° C. to 8° C.,4 h
same,stability diluted in infusion bags,room temperature (20° C. to 25° C.),4 h
same,dose-response plateau dose,[6],12 mg
same,minimally effective dose,[6],4 mg
same,safe and optimally effective dose,[6],8 mg
same,finding in chronic toxicology studies,vacuolated cells,dose-dependent increase in vacuolated cells
same,subjects with infusion reactions (IRs),"[7]; 8 mg every 2 weeks, Phase 3, 120-min infusion, IR prophylaxis, no pre-infusion uric acid monitoring",26%
same,subjects with infusion-related reactions,"[7]; 8 mg every 4 weeks, Phase 3",40%
same,patients maintaining therapeutic response,"[7]; 6 months, pegloticase alone, previously reported",42%
same,patients with IRs in whom loss of response (SUA≥6 mg/dL) preceded the first IR,[7]; 20/21 patients,95%
same,subjects with anaphylaxis,"[7]; Phase 3, 120-min infusion, IR prophylaxis",5%
same,IR rate,[7]; clinical practice/studies with a uric acid monitoring protocol,about 8%
same,removal by dialysis,[8],not removed by the dialysis process
same,anaphylaxis,subjects with gout,no subjects experienced anaphylaxis
same,subjects experiencing an IR,"subjects with gout; no MTX, majority without IR prophylaxis",44%
